Residue numbers refer to the chain shown, from its start. In names and notes the source's numbering stands. Where two headings read alike, the source gives them in different places.

In data set [1] the test system is HCT-15 human colorectal cancer cells. It is filed as in vivo, BALB/c nude mice. As to the method:
Athymic nude BALB/c mice (age of 6-8 weeks) were housed under sterile conditions with 12 hour light-dark cycle and provided with autoclaved feed ad libitum. The mice were acclimated for at least 1 week before the start of experiments. Each nude mouse was implanted with ˜3 mm^3 of in vivo maintained HCT-15 human colorectal cancer cells to the right axilla subcutaneously. When stable palpable tumours of ˜5 mm diameter were developed, the mice were randomly separated into five different groups (Table 6). Intraperitoneal administrations of arginase drugs or control vehicle (PBS) were given twice per week while 5-fluorouracil was given once per week starting from Day 0. Tumour dimensions (L: longest diameter and W: its perpendicular diameter) and body weights were measured on every Mondays, Wednesdays and Fridays with Vernier caliper. Tumour volume was calculated with the formula (½×L×W^2) and no. of fold increase in tumour volume (relative tumour volume) was calculated with reference to Day-0. The results were plotted against time. The mice were euthanized at the end of experiment or when tumour diameter reached 2.5 cm.

The conditions of data set [2]: sodium phosphate buffer pH 7.4, 25° C.
Procedure: Either Bacillus caldovelox arginase (BCA) or the human arginase I (HAI) was expressed as described previously. The purification method was the same as described before except 10 mM of metal ion (CoSO4 or MnSO4) was added into the purified protein elution from Nickel affinity chromatography instead of added before Nickel affinity chromatography. Eluted factions containing the arginase enzyme were incubated with 10 mM metal for 15 min at 50˜55° C., followed by filtration through a 0.45 μm syringe filter. Then the solution was exchanged with storage buffer by ultrafiltration.
The mutant genes were cloned, expressed and purified for detailed studies.
In data set [3] the test system is hepatocellular carcinoma Hep3B cells. It is filed as in vivo, BALB/c nude mice. The following applies: for effect on tumour growth (tumour volume) vs PBS control: 500 Units/mouse i.p. weekly for 8 weeks, HAI-PEG20 effect from Day 47 (p<0.01); for average body weight: mouse, in vivo, ip. As to the method:
A number of BALB/c nude mice were injected with hepatocellular carcinoma Hep3B cells intraperitoneally (i.p.) and maintained in vivo. Then each of the 30 BALB/c nude mice was injected with ˜1×10^6 of the in vivo maintained cancer cells to the right axilla subcutaneously. When palpable tumours of 5 mm diameter were developed, the mice were separated into three different groups (see Table 3). Drugs or PBS buffer were administered intraperitoneally weekly starting on day 0 for 8 weeks. Body weights and tumour dimensions (L: length of the longer diameter and W: length of the shorter diameter of the tumour) were measured twice a week. Tumour volume (½×L×W^2) was calculated and plotted against time. After 60 days or when tumour diameter reached 2.5 cm, the mice were euthanized. Survival rates of the mice were recorded at the end of the study.

In data set [4] the test system is blood arginine. The experiment in a line: Pharmacodynamics: depletion of arginine in BALB/c normal mice. The format is in vivo. The settings on record: plasma, single i.p. dose. As to the method:
Pharmacodynamics of Cys^45 pegylated human arginase I and Cys^161 pegylated Bacillus caldovelox arginase were studied using BALB/c normal mice. The study was carried out in conjunction with the pharmacokinetic study (described below). Therefore, the protocol remained the same. Again, the blood samples collected was centrifuged immediately at 13,200 rpm for 5 minutes and the plasma layer were collected for further analysis using the Amino Acid Analyzer (Biochrom 30, Biochrom Ltd., England).

The subject of data set [5] is HIV-1 strain RF. The experiment in a line: HIV replication (virus inhibition) assay in H9 cells.
Data set [6] can be described thus: Steady-state kinetics of human arginase I with Mn2+ or Co2+ (DAMO assay). The format is biochemical. The settings on record: for Km: sodium phosphate buffer pH 7.4, 25° C. As to the method: Diacetylmonoxine (DAMO) assay was used to determine the kinetic parameters of human arginase with different metal cofactors. All enzymatic reactions were carried out at pH 7.4.

Data set [7] deals with 4T1. The experiment in a line: Cell proliferation assay (MTT, Table 11). It is filed as cell-based, mouse. The following applies: 4T1 breast, 3 days. As to the method: 1×10^5 cells of a mouse metastatic breast cancer cell line (4T1) were injected orthotopically into the No. 4 inguinal mammary fat pad of wild-type BALB/c mice at the age of 6-8 weeks. When the tumors reached an average of 5 mm, the mice were divided into two different treatment groups (Table 7). BCA-PEG20 (250 U/mouse) or control vehicle (PBS) were injected intraperitoneally twice per week starting from Day 0. Body weight was measured every week. After three weeks, the mice were sacrificed and analyzed for the lung metastasis. The number of lung metastases was counted under a dissecting microscope after rinsing with PBS.
Cell Proliferation Assay: For each cancer cell line, cells (5×10^3) in 100 μL culture medium were seeded to the wells of a 96-well plate and incubated for 24 hours by standard method.

Data set [8] has as its system MDA-MB-231. The experiment in a line: Cell proliferation assay (MTT, Table 11). It is filed as cell-based. The settings on record: MDA-MB-231 breast, 3 days.

In the case of `O=c1[nH]cc(F)c(=O)[nH]1` [5-fluorouracil], the “effect on tumour growth vs control” value in data set [1] (arginases i.p. twice per week (BCA 500, BCA-PEG20 250 Units/mouse), 5-fluorouracil 10 mg/kg once per week) was “did not show significant tumour suppression”. In addition, the “average body weight, last recorded” value in data set [1] (mouse, in vivo) stood at 24.5 ± 1.4 g.

B1: BCA mutant V20P Mn^2+ (protein, UniProt P53608 1-299, looked up, variant V20P)
Arginase: MKPISIIGVPMDLGQTRRGPDMGPSAMRYAGVIERLERLHYDIEDLGDIPIGKAERLHEQGDSRLRNLKAVAEANEKLAAAVDQVVQRGRFPLVLGGDHSIAIGTLAGVAKHYERLGVIWYDAHGDVNTAETSPSGNIHGMPLAASLGFGHPALTQIGGYSPKIKPEHVVLIGVRSLDEGEKKFIREKGIKIYTMHEVDRLGMTRVMEETIAYLKERTDGVHLSLDLDGLDPSDAPGVGTPVIGGLTYRESHLAMEMLAEAQIITSAEFVEVNPILDERNKTASVAVALMGSLFGEKLM
modifications: Mn2+
Usually Km stands for the concentration of substrate that gives half-maximal velocity. Consider B1, for which, in data set [2], the Km was ~1290 µM.

B2: BCAWTMn^2+: wild-type Bacillus caldovelox arginase with Mn^2+ (protein, UniProt P53608 1-299, looked up)
Arginase: B1 Arginase with P20V
modifications: Mn2+
Take B2: in data set [2], the Km is ~3200 µM.

B3: BCA mutant V20P Co^2+ (protein, UniProt P53608 1-299, looked up, variant V20P)
Arginase: B1 Arginase
modifications: Co2+
With B3, the Km in data set [2] is ~180 µM.

B4: HAI-PEG20: Cys^45-specific mono-pegylated 6xHis-tagged human arginase I mutant (C168S/C303S) with single chain mPEG-maleimide (20 kDa) (conjugate, UniProt P05089 1-322, looked up, variant C168S C303S)
Arginase-1: MSAKSRTIGIIGAPFSKGQPRGGVEEGPTVLRKAGLLEKLKEQECDVKDYGDLPFADIPNDSPFQIVKNPRSVGKASEQLAGKVAEVKKNGRISLVLGGDHSLAIGSISGHARVHPDLGVIWVDAHTDINTPLTTTSGNLHGQPVSFLLKELKGKIPDVPGFSWVTPSISAKDIVYIGLRDVDPGEHYILKTLGIKYFSMTEVDRLGIGKVMEETLSYLLGRKKRPIHLSFDVDGLDPSFTPATGTPVVGGLTYREGLYITEEIYKTGLLSGLDIMEVNPSLGKTPEEVTRTVNTAVAITLASFGLAREGNHKPIDYLNPPK
modifications: 20 kDa mPEG-maleimide at Cys45; 6xHis tag
Regarding B4, the “effect on tumour growth (tumour volume) vs PBS control” value in data set [3] is “significantly reduced the rate of tumour growth”. For the same molecule, the average body weight in data set [3] was determined as 25.0 ± 0.2 g. The “time at which arginine started to appear after arginase administration” value in data set [4] amounted to 6.8 ± 2.3 days. The arginine depletion entry in data set [4] (starting from 6 hr (Day 0)) was “totally depleted”. In data set [4] (stayed at high level up to Day 3), the ornithine level is > 150 µM. Further, the results for the “wells displaying cytopathic effect (positive wells/wells inoculated)” value in data set [5] (1 U/mL), in data set [5] (10 U/mL) and in data set [5] (50 U/mL) were 8/8, 6/8 and 3/8, respectively. The “IC50 on HIV” value in data set [5] (H9 cells, five days post infection, cytopathic effect) is on record as “approximately 37 U/mL”.

B5: HAI Mn^2+: recombinant human arginase I with Mn^2+ as metal cofactor (protein, UniProt P05089 1-322, looked up)
Arginase-1: B4 Arginase-1 with S168C, S303C
modifications: Mn2+ cofactor
notes: recombinant human arginase I with Mn^2+ as metal cofactor
As to B5, in data set [6], the Km was 1830 µM.

B6: HAI Co^2+: recombinant human arginase I with cobalt replacing manganese as metal cofactor (protein, UniProt P05089 1-322, looked up)
Arginase-1: B4 Arginase-1 with S168C, S303C
modifications: cobalt cofactor
For the molecule B6, the “improvement of Km value vs HAI Mn^2+” value in data set [6] (pH 7.4, 25° C.) was “about 10 fold”. For the same molecule, the Km in data set [6] worked out at 190 µM.

B7: HAI: non-pegylated 6xHis-tagged recombinant human arginase I (protein, UniProt P05089 1-322, looked up)
Arginase-1: B4 Arginase-1 with S168C, S303C
modifications: 6xHis tag
notes: non-pegylated 6xHis-tagged recombinant human arginase I
As for B7, in data set [3], the “effect on tumour growth (tumour volume) vs PBS control” value is given as “did not show any significant effect” and the average body weight amounted to 25.5 ± 0.2 g. In addition, the IC50 in data set [7] is given as 0.058 U/mL. In data set [8], this molecule registered an IC50 of 0.273 U/mL.

Source of the values: patent US8507245B2, “Site-directed pegylation of arginases and the use thereof as anti-cancer and anti-viral agents” (priority 2009, dated 2013).
